Measured values: article PMC11555115

What was measured:
[1] = biological target: His-tagged linear tetra-ubiquitin chains (TR-FRET with SHARPIN NZF) (UniProt P0CG48); assay: TR-FRET assay; details: DMSO; mixed and incubated for 1 h; parent: 100; read off a plot; scale: relative fluorescence intensity
[2] = biological target: Sm-di-ubiquitin (GA mutant) (UniProt P0CG48); assay: NanoBiT assay in HEK293T cells; details: 1 h, transient transfection, cultured 24 h, read off a plot, scale: relative luminescent intensity

percent of parent [1] | percent of parent ([2]; DMSO, parent: 100) | response ([2]; FSL0717 10 μM, parent: est. 60) | response ([2]; FSL0720 10 μM, parent: est. 50) | Substance
38 |  |  |  | GST-tagged SHARPIN NZF T351A; F352A
 | 52 | 37 | 43 | Lg-HOIL-1L NZF WT (from UniProt Q9WUB0) TR-AA
